Measurements: US20030199423A1

Experiments:
[1] = biological target: T1, soluble human ICAM-R (human), P32942; assay: blocking of biotinylated murine ICR-8.1 binding to ICAM-R; competitor murine ICR-8.1
T1 chain: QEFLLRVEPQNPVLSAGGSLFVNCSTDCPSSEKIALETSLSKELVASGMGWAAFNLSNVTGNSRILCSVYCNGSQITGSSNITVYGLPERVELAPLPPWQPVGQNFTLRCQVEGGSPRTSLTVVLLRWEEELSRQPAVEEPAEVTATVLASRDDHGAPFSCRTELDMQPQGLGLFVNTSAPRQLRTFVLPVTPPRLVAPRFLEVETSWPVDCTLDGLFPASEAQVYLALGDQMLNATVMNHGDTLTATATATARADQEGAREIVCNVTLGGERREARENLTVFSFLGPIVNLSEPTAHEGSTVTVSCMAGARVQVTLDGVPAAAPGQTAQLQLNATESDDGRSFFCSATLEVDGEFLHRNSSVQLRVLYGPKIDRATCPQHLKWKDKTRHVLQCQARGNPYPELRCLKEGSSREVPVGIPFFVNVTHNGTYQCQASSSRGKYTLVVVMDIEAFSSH

[2] = biological target: T1, soluble human ICAM-R (human), P32942; assay: ELISA on coated baculovirus soluble ICAM-R
[3] = biological target: CD18-independent counterreceptor for ICAM-R on Jurkat cells; assay: inhibition of Jurkat cell adhesion to coated soluble ICAM-R, peptide 1-2 mg/ml

Binder | fold less well competing than murine ICR-8.1 [1] | fold improvement in binding over the other recombinant ICR-8.1 antibodies [2] | % Inhibition [3]
recombinant ICR-8.1 antibody miHuVHI/MuVK (antibody, modifications not checked) chain 1: QIQLVQSGAEVKKPGASVKVSCKASGYTFTDCIILWVRQAPGQGLEWMGKINPYFGTTTYAQKFQGRVTITADTSTSTAYMELSSLRSEDTAVYYCARKEAYPDAMDYWGQGTLVTVSS chain 2: DAVMTQTPLSLPVSLGDQASISCRSSQSLVHSNGDTYLHWYLQKPGQSPQLLIYKVSNRFSGVPDRFSGSGSGTDFTLKLSRVEAEDLGVYFCSQSTHVPYTFGGGTKLEIK | 2 fold | 2 fold | 
NGSQI [ICAM-R domain 1 peptide (NGSQI), residues 72-76] |  |  | 17%
GDQRL [ICAM-1 peptide (GDQRL), residues 228-232] |  |  | 22%
DGQST [ICAM-1 peptide (DGQST), residues 70-74] |  |  | 9%
GERREA [ICAM-R peptide, residues 271-276] |  |  | 11%
GDQML [ICAM-R domain 3 peptide (GDQML), residues 230-234] |  |  | 36%
EKIALET [ICAM-R peptide, residues 32-38] |  |  | 10%
